Results on 5 molecules are retold here after patent publication US12679878B2, “CRF2 receptor agonists and their use in therapy” (SANOFI, priority 2020, dated 2026).

Starred links: 1 amine or outer side, 2 acyl side, 3 side chain; linkers in the order of their positions; H or OH if unused. Non-standard residues stand in square brackets, D forms with d. Groups on a side chain read outwards from the residue. No end group written: not given here. *: point of attachment. C18 diacid = O=C(O)CCCCCCCCCCCCCCCCC(=O)*; γGlu = O=C(O)[C@H](CCC(=O)[*:2])N[*:1]; Palmitoyl = CCCCCCCCCCCCCCCC(=O)*; AEEA = NCCOCCOCC(=O)O; Aib = CC(C)(N)C(=O)O

The target in this assay is human corticotropin-releasing factor 2α (CRF2 α receptor) (human), Q13324. Description: cell-based or functional assay.
Chain of human corticotropin-releasing factor 2α (CRF2 α receptor) (human), Q13324 (Q13324 20-411): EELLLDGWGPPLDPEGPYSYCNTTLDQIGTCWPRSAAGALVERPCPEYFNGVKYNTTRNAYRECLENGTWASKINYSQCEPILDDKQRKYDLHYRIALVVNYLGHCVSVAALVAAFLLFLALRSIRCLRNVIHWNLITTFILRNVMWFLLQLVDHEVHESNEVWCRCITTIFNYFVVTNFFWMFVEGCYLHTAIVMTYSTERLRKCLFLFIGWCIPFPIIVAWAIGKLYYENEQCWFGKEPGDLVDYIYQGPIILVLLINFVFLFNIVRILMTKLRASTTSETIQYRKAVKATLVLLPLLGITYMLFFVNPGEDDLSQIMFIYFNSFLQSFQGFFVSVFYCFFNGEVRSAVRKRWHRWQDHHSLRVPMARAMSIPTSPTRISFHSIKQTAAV

B1: SEQ ID NO: 161 (peptide)
peptide: Ac-IVLSLD[dV]PIKLK([AEEA-AEEA-γGlu-C18 diacid])QILLEQERQE[Aib]EREQAEKNEQILEQV-NH2
SMILES: CC[C@H](C)[C@H](NC(C)=O)C(=O)N[C@H](C(=O)N[C@@H](CC(C)C)C(=O)N[C@@H](CO)C(=O)N[C@@H](CC(C)C)C(=O)N[C@@H](CC(=O)O)C(=O)N[C@@H](C(=O)N1CCC[C@H]1C(=O)N[C@H](C(=O)N[C@@H](CCCCN)C(=O)N[C@@H](CC(C)C)C(=O)N[C@@H](CCCCNC(=O)COCCOCCNC(=O)COCCOCCNC(=O)CC[C@H](NC(=O)CCCCCCCCCCCCCCCCC(=O)O)C(=O)O)C(=O)N[C@@H](CCC(N)=O)C(=O)N[C@H](C(=O)N[C@@H](CC(C)C)C(=O)N[C@@H](CC(C)C)C(=O)N[C@@H](CCC(=O)O)C(=O)N[C@@H](CCC(N)=O)C(=O)N[C@@H](CCC(=O)O)C(=O)N[C@@H](CCCNC(=N)N)C(=O)N[C@@H](CCC(N)=O)C(=O)N[C@@H](CCC(=O)O)C(=O)NC(C)(C)C(=O)N[C@@H](CCC(=O)O)C(=O)N[C@@H](CCCNC(=N)N)C(=O)N[C@@H](CCC(=O)O)C(=O)N[C@@H](CCC(N)=O)C(=O)N[C@@H](C)C(=O)N[C@@H](CCC(=O)O)C(=O)N[C@@H](CCCCN)C(=O)N[C@@H](CC(N)=O)C(=O)N[C@@H](CCC(=O)O)C(=O)N[C@@H](CCC(N)=O)C(=O)N[C@H](C(=O)N[C@@H](CC(C)C)C(=O)N[C@@H](CCC(=O)O)C(=O)N[C@@H](CCC(N)=O)C(=O)N[C@H](C(N)=O)C(C)C)[C@@H](C)CC)[C@@H](C)CC)[C@@H](C)CC)C(C)C)C(C)C
B1 registered an EC50 [nM], 0% HSA of 36 nM and an EC50 [nM], 0.1% HSA of 977 nM.

B2: SEQ ID NO: 18 (peptide)
peptide: IVLSLD[dV]PTKLK([γGlu-Palmitoyl])QKLLKQERQRKEREQAEKNKRILERV-NH2
modifications: N-terminus assumed
SMILES: CCCCCCCCCCCCCCCC(=O)N[C@@H](CCC(=O)NCCCC[C@H](NC(=O)[C@H](CC(C)C)NC(=O)[C@H](CCCCN)NC(=O)[C@@H](NC(=O)[C@@H]1CCCN1C(=O)[C@H](NC(=O)[C@H](CC(=O)O)NC(=O)[C@H](CC(C)C)NC(=O)[C@H](CO)NC(=O)[C@H](CC(C)C)NC(=O)[C@@H](NC(=O)[C@@H](N)[C@@H](C)CC)C(C)C)C(C)C)[C@@H](C)O)C(=O)N[C@@H](CCC(N)=O)C(=O)N[C@@H](CCCCN)C(=O)N[C@@H](CC(C)C)C(=O)N[C@@H](CC(C)C)C(=O)N[C@@H](CCCCN)C(=O)N[C@@H](CCC(N)=O)C(=O)N[C@@H](CCC(=O)O)C(=O)N[C@@H](CCCNC(=N)N)C(=O)N[C@@H](CCC(N)=O)C(=O)N[C@@H](CCCNC(=N)N)C(=O)N[C@@H](CCCCN)C(=O)N[C@@H](CCC(=O)O)C(=O)N[C@@H](CCCNC(=N)N)C(=O)N[C@@H](CCC(=O)O)C(=O)N[C@@H](CCC(N)=O)C(=O)N[C@@H](C)C(=O)N[C@@H](CCC(=O)O)C(=O)N[C@@H](CCCCN)C(=O)N[C@@H](CC(N)=O)C(=O)N[C@@H](CCCCN)C(=O)N[C@@H](CCCNC(=N)N)C(=O)N[C@H](C(=O)N[C@@H](CC(C)C)C(=O)N[C@@H](CCC(=O)O)C(=O)N[C@@H](CCCNC(=N)N)C(=O)N[C@H](C(N)=O)C(C)C)[C@@H](C)CC)C(=O)O
As to B2, the EC50 [nM], 0% HSA came to 0.03 nM.

B3: SEQ ID NO: 162 (peptide)
peptide: Ac-IVLSLD[dV]PIELK([AEEA-AEEA-γGlu-C18 diacid])QILLEQERQK[Aib]QREQAEKNKQILEQV-NH2
SMILES: CC[C@H](C)[C@H](NC(C)=O)C(=O)N[C@H](C(=O)N[C@@H](CC(C)C)C(=O)N[C@@H](CO)C(=O)N[C@@H](CC(C)C)C(=O)N[C@@H](CC(=O)O)C(=O)N[C@@H](C(=O)N1CCC[C@H]1C(=O)N[C@H](C(=O)N[C@@H](CCC(=O)O)C(=O)N[C@@H](CC(C)C)C(=O)N[C@@H](CCCCNC(=O)COCCOCCNC(=O)COCCOCCNC(=O)CC[C@H](NC(=O)CCCCCCCCCCCCCCCCC(=O)O)C(=O)O)C(=O)N[C@@H](CCC(N)=O)C(=O)N[C@H](C(=O)N[C@@H](CC(C)C)C(=O)N[C@@H](CC(C)C)C(=O)N[C@@H](CCC(=O)O)C(=O)N[C@@H](CCC(N)=O)C(=O)N[C@@H](CCC(=O)O)C(=O)N[C@@H](CCCNC(=N)N)C(=O)N[C@@H](CCC(N)=O)C(=O)N[C@@H](CCCCN)C(=O)NC(C)(C)C(=O)N[C@@H](CCC(N)=O)C(=O)N[C@@H](CCCNC(=N)N)C(=O)N[C@@H](CCC(=O)O)C(=O)N[C@@H](CCC(N)=O)C(=O)N[C@@H](C)C(=O)N[C@@H](CCC(=O)O)C(=O)N[C@@H](CCCCN)C(=O)N[C@@H](CC(N)=O)C(=O)N[C@@H](CCCCN)C(=O)N[C@@H](CCC(N)=O)C(=O)N[C@H](C(=O)N[C@@H](CC(C)C)C(=O)N[C@@H](CCC(=O)O)C(=O)N[C@@H](CCC(N)=O)C(=O)N[C@H](C(N)=O)C(C)C)[C@@H](C)CC)[C@@H](C)CC)[C@@H](C)CC)C(C)C)C(C)C
As to B3, the EC50 [nM], 0% HSA was found to be 2 nM and the EC50 [nM], 0.1% HSA amounted to 30.5 nM.

B4: SEQ ID NO: 164 (peptide)
peptide: Ac-IVLSLD[dV]PIGLK([AEEA-AEEA-γGlu-C18 diacid])QILLEQERQK[Aib]QREQAEKNKQILEQV-NH2
SMILES: CC[C@H](C)[C@H](NC(C)=O)C(=O)N[C@H](C(=O)N[C@@H](CC(C)C)C(=O)N[C@@H](CO)C(=O)N[C@@H](CC(C)C)C(=O)N[C@@H](CC(=O)O)C(=O)N[C@@H](C(=O)N1CCC[C@H]1C(=O)N[C@H](C(=O)NCC(=O)N[C@@H](CC(C)C)C(=O)N[C@@H](CCCCNC(=O)COCCOCCNC(=O)COCCOCCNC(=O)CC[C@H](NC(=O)CCCCCCCCCCCCCCCCC(=O)O)C(=O)O)C(=O)N[C@@H](CCC(N)=O)C(=O)N[C@H](C(=O)N[C@@H](CC(C)C)C(=O)N[C@@H](CC(C)C)C(=O)N[C@@H](CCC(=O)O)C(=O)N[C@@H](CCC(N)=O)C(=O)N[C@@H](CCC(=O)O)C(=O)N[C@@H](CCCNC(=N)N)C(=O)N[C@@H](CCC(N)=O)C(=O)N[C@@H](CCCCN)C(=O)NC(C)(C)C(=O)N[C@@H](CCC(N)=O)C(=O)N[C@@H](CCCNC(=N)N)C(=O)N[C@@H](CCC(=O)O)C(=O)N[C@@H](CCC(N)=O)C(=O)N[C@@H](C)C(=O)N[C@@H](CCC(=O)O)C(=O)N[C@@H](CCCCN)C(=O)N[C@@H](CC(N)=O)C(=O)N[C@@H](CCCCN)C(=O)N[C@@H](CCC(N)=O)C(=O)N[C@H](C(=O)N[C@@H](CC(C)C)C(=O)N[C@@H](CCC(=O)O)C(=O)N[C@@H](CCC(N)=O)C(=O)N[C@H](C(N)=O)C(C)C)[C@@H](C)CC)[C@@H](C)CC)[C@@H](C)CC)C(C)C)C(C)C
In turn, B4 gave an EC50 [nM], 0% HSA of 0.69 nM and an EC50 [nM], 0.1% HSA of 10.1 nM.

As to Ac-IVLSLD[dV]PIHLK([AEEA-AEEA-γGlu-C18 diacid])QILLEQERQK[Aib]QREQAEKNKQILEQV-NH2 [SEQ ID NO: 163], the EC50 [nM], 0% HSA came out at 0.24 nM and the EC50 [nM], 0.1% HSA amounted to 3.91 nM.
